Reference: article PMC8358895 (Cell reports, 2021)

Target: MBP-PLK1 (UniProt P53350 1-603)
Assay: pull-down

Chain of MBP-PLK1 (P53350 whole entry): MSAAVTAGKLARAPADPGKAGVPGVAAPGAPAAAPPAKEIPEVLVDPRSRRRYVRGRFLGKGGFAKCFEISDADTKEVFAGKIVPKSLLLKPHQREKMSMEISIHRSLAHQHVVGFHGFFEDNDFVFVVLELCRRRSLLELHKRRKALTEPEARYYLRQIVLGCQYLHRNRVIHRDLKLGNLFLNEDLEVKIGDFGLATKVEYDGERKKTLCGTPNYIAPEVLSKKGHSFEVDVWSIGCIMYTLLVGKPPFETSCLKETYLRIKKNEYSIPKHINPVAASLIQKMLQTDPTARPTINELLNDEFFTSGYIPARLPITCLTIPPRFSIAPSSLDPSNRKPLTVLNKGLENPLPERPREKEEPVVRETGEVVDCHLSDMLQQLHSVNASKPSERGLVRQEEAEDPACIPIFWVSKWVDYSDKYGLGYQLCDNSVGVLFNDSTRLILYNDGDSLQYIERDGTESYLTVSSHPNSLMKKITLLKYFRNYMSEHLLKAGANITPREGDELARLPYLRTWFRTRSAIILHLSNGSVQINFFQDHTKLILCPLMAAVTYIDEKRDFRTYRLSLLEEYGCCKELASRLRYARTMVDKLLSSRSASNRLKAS

B1: GST-Apolo1-N (domain or fragment)
chain: MFLPHMNHLTLEQTFFSQVLPKTVKLFDDMMYELTSQARGLSSQNLEIQTTLRNILQTMVQLLGALTGCVQHICATQESIILENIQSLPSSVLHIIKSTFVHCKNSESVYSGCLHLVSDLLQALFKEAYSLQKQLMELLDMVCMDPLVDDNDDILNMVIVIHSLLDICSVISSMDH
**Q.** Does B1 bind?
**A.** binds
